Measured values from PMC5582868, “BLADE-ON-PETIOLE proteins act in an E3 ubiquitin ligase complex to regulate PHYTOCHROME INTERACTING FACTOR 4 abundance” (eLife, 2017).

Tests used:
His-MBP-BOP2 = target: T1, His-MBP-BOP2 (Arabidopsis thaliana, UniProt Q9ZVC2 1-491); experiment: pull-down; 1 µg GST-PIF4 on Glutathione Sepharose 4B beads; 1 µg MBP or MBP-BOP2 added in 300 µl binding buffer (50 mM Tris-Cl pH 7.6, 100 mM NaCl, 1 mM EDTA, 1% Triton X-100, 0.5 mM DTT, 5% glycerol), 4°C, 2 hr; blot with anti-MBP; conditions: both partners purified
T1 construct: BLADE-ON-PETIOLE 2 (BOP2), Arabidopsis thaliana; source: Escherichia coli BL21, purified (Ni-NTA Agarose)
T1 sequence (looked up): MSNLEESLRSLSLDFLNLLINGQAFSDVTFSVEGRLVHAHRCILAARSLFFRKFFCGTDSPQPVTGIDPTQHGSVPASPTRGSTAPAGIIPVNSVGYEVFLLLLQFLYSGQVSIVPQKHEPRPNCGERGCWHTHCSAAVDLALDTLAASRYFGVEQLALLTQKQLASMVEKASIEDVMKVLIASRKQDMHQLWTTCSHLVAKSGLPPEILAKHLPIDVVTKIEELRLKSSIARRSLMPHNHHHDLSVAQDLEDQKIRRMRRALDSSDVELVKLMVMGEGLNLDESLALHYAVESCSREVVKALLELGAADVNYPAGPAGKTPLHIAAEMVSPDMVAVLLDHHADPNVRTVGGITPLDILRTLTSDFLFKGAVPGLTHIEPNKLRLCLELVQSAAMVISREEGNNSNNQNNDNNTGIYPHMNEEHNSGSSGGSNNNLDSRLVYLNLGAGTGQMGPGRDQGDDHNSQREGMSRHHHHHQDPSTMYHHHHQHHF

His-GST-PIF4 = target: T2, His-GST-PIF4 (Arabidopsis thaliana (Mouse-ear cress), UniProt Q8W2F3); experiment: GST pulldown
T2 chain: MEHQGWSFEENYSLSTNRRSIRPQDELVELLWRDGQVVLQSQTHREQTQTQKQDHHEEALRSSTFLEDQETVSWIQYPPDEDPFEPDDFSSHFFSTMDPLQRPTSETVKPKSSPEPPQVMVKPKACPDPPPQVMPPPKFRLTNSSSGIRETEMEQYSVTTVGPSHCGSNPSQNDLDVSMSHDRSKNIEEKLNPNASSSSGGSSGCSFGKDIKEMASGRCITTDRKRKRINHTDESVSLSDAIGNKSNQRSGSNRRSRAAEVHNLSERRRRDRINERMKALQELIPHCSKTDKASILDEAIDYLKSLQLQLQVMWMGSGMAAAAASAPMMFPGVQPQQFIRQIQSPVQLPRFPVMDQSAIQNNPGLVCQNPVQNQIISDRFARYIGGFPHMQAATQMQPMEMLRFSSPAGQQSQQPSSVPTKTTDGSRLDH

B1: His-GST-PIF4 (natural protein, Arabidopsis thaliana, UniProt Q8W2F3 1-430, looked up)
chain: MEHQGWSFEENYSLSTNRRSIRPQDELVELLWRDGQVVLQSQTHREQTQTQKQDHHEEALRSSTFLEDQETVSWIQYPPDEDPFEPDDFSSHFFSTMDPLQRPTSETVKPKSSPEPPQVMVKPKACPDPPPQVMPPPKFRLTNSSSGIRETEMEQYSVTTVGPSHCGSNPSQNDLDVSMSHDRSKNIEEKLNPNASSSSGGSSGCSFGKDIKEMASGRCITTDRKRKRINHTDESVSLSDAIGNKSNQRSGSNRRSRAAEVHNLSERRRRDRINERMKALQELIPHCSKTDKASILDEAIDYLKSLQLQLQVMWMGSGMAAAAASAPMMFPGVQPQQFIRQIQSPVQLPRFPVMDQSAIQNNPGLVCQNPVQNQIISDRFARYIGGFPHMQAATQMQPMEMLRFSSPAGQQSQQPSSVPTKTTDGSRLDH
notes: also called glutathione S-transferase (GST) tagged PIF4; source: Escherichia coli BL21, purified (Ni-NTA Agarose)
B1: binds (His-MBP-BOP2).

B2: His-MBP-BOP2 (protein)
chain: MSNLEESLRSLSLDFLNLLINGQAFSDVTFSVEGRLVHAHRCILAARSLFFRKFFCGTDSPQPVTGIDPTQHGSVPASPTRGSTAPAGIIPVNSVGYEVFLLLLQFLYSGQVSIVPQKHEPRPNCGERGCWHTHCSAAVDLALDTLAASRYFGVEQLALLTQKQLASMVEKASIEDVMKVLIASRKQDMHQLWTTCSHLVAKSGLPPEILAKHLPIDVVTKIEELRLKSSIARRSLMPHNHHHDLSVAQDLEDQKIRRMRRALDSSDVELVKLMVMGEGLNLDESLALHYAVESCSREVVKALLELGAADVNYPAGPAGKTPLHIAAEMVSPDMVAVLLDHHADPNVRTVGGITPLDILRTLTSDFLFKGAVPGLTHIEPNKLRLCLELVQSAAMVISREEGNNSNNQNNDNNTGIYPHMNEEHNSGSSGGSNNNLDSRLVYLNLGAGTGQMGPGRDQGDDHNSQREGMSRHHHHHQDPSTMYHHHHQHHF
B2: binds (His-GST-PIF4).
